Columns and labels:
[1] = tested on: mouse sperm-egg fusion; details: cited from earlier work
[2] = tested on: oolemma; details: sea urchin; cited from earlier work
[3] = tested on: Metaphase II eggs; experiment: Egg labeling by indirect immunofluorescence; format: cell-based, mouse; details: 100 μg/ml protein, 45 min
Procedure: Metaphase II eggs were obtained as previously described (Coonrod et al, 1999) and incubated with 5% NGS/media for 30 min. Oocytes were washed five times in TYH medium and incubated with 100 μg/ml recmSLLP1 or 100 μg/ml lysozymes for 45 min at 37° C. and 5% CO2. Oocytes were washed five times and incubated with guinea pig anti-recmSLLP1 polyclonal antibody (1:50), sheep anti-human lysozyme (1:25) or rabbit anti-chicken lysozyme (1:400) in 5% NGS/media for 1 h at 37° C. and 5% CO2. Oocytes were washed five times and incubated with donkey anti-guinea pig/Texas Red antibody (1:200) or goat anti-guinea pig/FITC antisera 1:200), donkey anti-sheep and goat anti-rabbit FITC-labeled secondary antibody (1:200) (Jackson ImmunoResearch), respectively in 5% NGS/media for 1 h at […] 37° C. and 5% CO2. Oocytes were washed and mounted in media onto glass slides and visualized under a Zeiss Standard 18 ultraviolet microscope. Images were captured by using MrGrab 1.0 (Carl Zeiss Vision GmbH, Germany).

[4] = biological target: T1, fluorescent tagged synthetic peptide (Mus musculus, UniProt Q6HA09); experiment: Protease activity assay of SAS1R (EnzChek Peptidase/Protease Assay Kit, FRET); format: biochemical
T1 construct: The mature rSAS1R (414 residues); 20 vector-encoded residues including His6 (pET-28b) (N); made in house; host or cells: E. coli BL21DE3
T1 sequence (Q6HA09 22-435): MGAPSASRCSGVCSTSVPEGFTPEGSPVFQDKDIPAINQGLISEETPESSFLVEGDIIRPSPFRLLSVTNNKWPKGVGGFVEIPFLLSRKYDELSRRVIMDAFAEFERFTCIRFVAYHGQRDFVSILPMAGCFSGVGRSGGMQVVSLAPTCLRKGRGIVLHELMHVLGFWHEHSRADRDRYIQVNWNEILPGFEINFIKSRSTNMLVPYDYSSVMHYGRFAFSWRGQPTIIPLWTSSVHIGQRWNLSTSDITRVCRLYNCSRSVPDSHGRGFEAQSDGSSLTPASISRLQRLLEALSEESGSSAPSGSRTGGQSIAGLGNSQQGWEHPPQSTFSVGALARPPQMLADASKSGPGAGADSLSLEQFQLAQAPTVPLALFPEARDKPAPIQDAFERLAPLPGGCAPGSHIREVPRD
Procedure: Protease activity was assayed with purified soluble rSAS1R using the EnzChek® Peptidase/Protease Assay Kit.
Protease activity was assayed in serial dilutions (0-2000 ng) of purified bacterial recombinant SAS1R using the EnzChek® Peptidase/Protease Assay Kit (Molecular Probes, OR), which provides a FRET (fluorescence resonance energy transfer)-based method for quantitation of a wide range of protease activities. This assay was performed in 100 μl size reactions and repeated three times with varying concentrations of recombinant SAS1R. Fluorescence was measured over 24 h following the manufacturer's protocol. Protease activity of recombinant SAS1R appeared within 1 h and increased within 24 h. SLLP1 was used as a negative control. The assay method was validated using purified trypsin as a positive control (Sigma, MO).

[5] = tested on: capacitated sperm; experiment: Co-localization of rSAS1R binding sites and SLLP1 on sperm; format: cell-based, mouse; details: capacitated sperm incubated with rSAS1R, probed with both antibodies
Procedure: Zona intact-, zona free oocytes, early embryos and sperm were collected as before (10), blocked and probed with 1st and 2nd antibody and imaged with UV-microscopy. For co-LC studies, gametes were incubated with soluble rSAS1R or rSLLP1, washed, probed with 1st- and 2nd antibodies and imaged with UV-microscopy.
Similarly capacitated mouse sperm were also examined for co-localization of SAS1R binding sites and SLLP1 localization. Sperms were incubated with increasing concentrations (0-100 μg/ml) of rSAS1R for 1 h, then sperm were washed two times at 700 g for 8 min and droplets were made on glass slide. These droplets were air-dried for 30 min and rehydrated again with 20 μl of PBS for 5 min. Now in the droplets, sperm were fixed with 20 μl of 4% paraformaldehyde for 25 min and then washed with 20 μl of PBS thrice for 5 min each. Now the droplets were blocked with 10% NGS for 30 min and incubated with guinea pig anti-rSAS1R polyclonal antibody (1:200) and rat anti-rSLLP1 polyclonal antibody (1:200) simultaneously, in 0.1% NGS/media for 1 h at 37° C. and 5% CO2. All the droplets were washed three times and incubated with goat anti-guinea pig/Cy3 red antibody (1:200, Jackson ImmunoResearch, PA) and goat anti-rat/FITC green antibody (1:200, Jackson ImmunoResearch, PA), in 0.1% NGS/media for 1 h at 37° C. and 5% CO2. Sperms were washed and mounted in media on glass slides. […]

[6] = tested on: cumulus intact oocytes; experiment: Mouse in vitro fertilization, capacitated sperm pre-incubated with rSAS1R; format: cell-based
Procedure: Epididymal sperm from sexually mature and oocytes from 6 to 8 weeks old ICR mice were used for gamete studies and IVF. Capacitated sperm in presence or absence of rSAS1R were used to inseminate cumulus intact oocytes and fertilization was scored by counting two cell embryos.
ICR mice were used in all experiments. Suspensions of epididymal spermatozoa from sexually mature male mice were prepared for insemination of isolated oocytes. Oocytes were obtained from 6 to 8 weeks old females superovulated with 10 IU PMSG and 10 IU hCG, injected intraperitoneally at 48 h intervals. Females were killed 16 h after hCG injection, and both oviducts were immediately removed, placed in mineral oil, and flushed to recover oocytes.
In vitro fertilization was conducted with cumulus intact oocytes using sperm dispersed from cauda epididymides. Sperm were placed for 5 min in 200 μl drops of fertilization medium under paraffin oil. […] The eggs were then placed in 5 μl of fertilization medium between a microscope slide and an elevated coverslip, and visualized at 160× using light and fluorescence microscopy (Zeiss Axioplan). Two-cell embryos were scored as fertilized, while one-celled oocytes were scored as unfertilized.

[7] = tested on: mouse eggs; experiment: Binding of SLLP2 to mouse eggs; format: cell-based; details: human SLLP2
Procedure: To analyze the biologic activity of human SLLP2, it was determined whether it would bind to an egg, in this case, a mouse egg.
For comparison to the use of human sperm SLLP2, an experiment was performed to determine if purified mouse SLLP2 would bind to Zona intact mouse eggs. […] Competitive assays were then performed to determine whether the addition of recombinant mouse SLLP2 to a mixture of mouse sperm and mouse eggs could inhibit binding of sperm and eggs. Various amounts of recombinant mouse SLLP2 were added (5, 25, 50, 100, and 200 μg/ml) and the number of sperm bound per egg was determined.

[8] = tested on: zona-free mouse eggs; experiment: In vitro fertilization with zona-free eggs (sperm-oolemma binding and fusion); format: cell-based; details: 25 μg of human SLLP1
Procedure: For the sperm-oolemma binding assay, two cauda epididymides were placed in 900 μl drops of fertilization medium under paraffin oil for the dense mass of spermatozoa to flow freely for ˜15 min and then diluted at 1×10^6/ml for 3 h of capacitation. Cumulus oocyte complexes were placed in 200 μl drops of TYH medium under paraffin oil. Cumulus cells were removed by treating the oocytes for 3 min with 1 mg/ml hyaluronidase in TYH medium and then washed 8 times in 50 μl drops. Zona pellucidae were loosened by treating the oocytes with 10 μg/ml chymotrypsin in TYH media for 1 min and loosened zonae were removed by mechanical agitation using a pulled Pasteur pipette. The oocytes were then washed 10 times and allowed to recover from chymotrypsin treatment by incubating in TYH media for 3 h, following which, they were stained with 10 μg/ml Hoechst dye for 10 min, and then gently washed. […]
To compare the effects of recmSLLP1 with human and chicken c lysozymes, spermatozoa were first incubated under standard capacitating conditions. Oocytes were pre-incubated for 45 min before insemination with recmSLLP1 (0.1 to 200 μg/ml) or with hSLLP1 (25 μg/ml) or with chicken or human lysozyme (50 μg/ml, 100 μg/ml). Untreated capacitated sperm were then added to the incubation drops containing the treated eggs with a final sperm concentration of 2.5×10^4/ml. Thus, in all the experiments performed the sera, the recombinant protein, or the lysozyme was present in the incubation droplet during gamete interaction. After 30 min of gamete co-incubation, oocytes were gently washed 5 times in TYH medium and placed between a microscope slide and an elevated coverslip and visualized at 160×. Binding to the oocyte was scored by counting the number of bound spermatozoa per oocyte using phase contrast. Fusion with the egg was scored by counting the number of decondensed sperm heads within each oocyte using fluorescence microscopy.

## c1cnc2c(c1)ccc1cccnc12 [1,10-phenanthroline]
[1]
  sperm-egg binding: without reducing sperm-egg binding
  sperm-egg fusion: inhibited mouse sperm-egg fusion
[2]
  binding of acrosome reacted sperm to the oolemma: no effect
  block of membrane fusion: 95%

## chicken lysozyme: conventional chicken c lysozyme used as comparator
[3]
  fluorescence of mouse oocytes after incubation with protein and respective antibody: did not show any fluorescence

## human lysozyme: conventional human c lysozyme used as comparator
[3]
  fluorescence of mouse oocytes after incubation with protein and respective antibody: did not show any fluorescence

B1: rSAS1R: mature recombinant mouse SAS1R (414 residues; SEQ ID NO:6) expressed in E. coli with histidine tag, affinity purified (protein, listed as Mus musculus)
chain: MGAPSASRCSGVCSTSVPEGFTPEGSPVFQDKDIPAINQGLISEETPESSFLVEGDIIRPSPFRLLSVTNNKWPKGVGGFVEIPFLLSRKYDELSRRVIMDAFAEFERFTCIRFVAYHGQRDFVSILPMAGCFSGVGRSGGMQVVSLAPTCLRKGRGIVLHELMHVLGFWHEHSRADRDRYIQVNWNEILPGFEINFIKSRSTNMLVPYDYSSVMHYGRFAFSWRGQPTIIPLWTSSVHIGQRWNLSTSDITRVCRLYNCSRSVPDSHGRGFEAQSDGSSLTPASISRLQRLLEALSEESGSSAPSGSRTGGQSIAGLGNSQQGWEHPPQSTFSVGALARPPQMLADASKSGPGAGADSLSLEQFQLAQAPTVPLALFPEARDKPAPIQDAFERLAPLPGGCAPGSHIREVPRD
modifications: His tag
[4]; 200-2000 ng rSAS1R in 100 μl assay, FRET, up to 24 h
  proteolytic activity: dose dependent proteolytic activity
[4]; fluorescence measured over 24 h
  time until protease activity appeared: ≤ 1 h
[5]
  binding to sperm: binds to acrosome of sperm and co-localizes with native SLLP1
[6]; 10 μg/ml rSAS1R
  reduction in fertilization: not statistically significant
[6]; 25 μg/ml rSAS1R, P≦0.03, two cell embryos scored
  reduction in fertilization: 89%

B2: human SLLP2: recombinant human SLLP2 expressed in E. coli (SEQ ID NO:18) (protein, listed as Homo sapiens)
chain: MKAWGTVVVTLATLMVVTVDAKIYERCELAARLERAGLNGYKGYGVGDWLCMAHYESGFDTAFVDHNPDGSSEYGIFQLNSAWWCDNGITPTKNLCHMDCHDLLNRHILDDIRCAKQIVSSQNGLSAWTSWRLHCSGHDLSEWLKGCDMHVKIDPKIHP
[7]
  binding to mouse eggs (cross-species): can indeed bind with mouse eggs

B3: human SLLP1: human sperm lysozyme-like protein 1 (SEQ ID NO:14) (protein, listed as Homo sapiens)
chain: MVSALRGAPLIRVHSSPVSSPSVSGPRRLVSCLSSQSSALSQSGGGSTSAAGIEARSRALRRRWCPAGIMLLALVCLLSCLLPSSEAKLYGRCELARVLHDFGLDGYRGYSLADWVCLAYFTSGFNAAALDYEADGSTNNGIFQINSRRWCSNLTPNVPNVCRMYCSDLLNPNLKDTVICAMKITQEPQGLGYWEAWRHHCQGKDLTEWVDGCDF
[8]
  sperm-egg binding and fusion: maximally inhibited

Source: patent US9803012B2, “Compositions and methods for regulating SAS1R” (UNIVERSITY OF VIRGINIA PATENT FOUNDATION, priority 2005, dated 2017)
